These results are taken from JP2014150761A (dated 2014).

Broadly, the IC50 is the point on the concentration scale where inhibition reaches its midpoint. Read a low IC50 as inhibition by little substance. The Kd is the constant that tells how readily two partners part at equilibrium. Low readings indicate tighter binding, high ones weaker binding.

Residue numbers refer to the chain shown, from its start. Names and notes keep the numbering of the source.

Assay [1] deals with T1, human beta-NGF (R&D Systems) (human, UniProt P01138 122-241). The assay is described as follows: cell-based or functional assay.
Assay [2] concerns the target T2, mouse beta-NGF (R&D Systems) (mouse, UniProt P01139 122-241). The assay is described as follows: cell-based or functional assay.
Assay [3] deals with T1, human beta-NGF (R&D Systems). Kind of assay: competition ELISA: inhibition of biotin-human βNGF binding to immobilised human trkA (Example 3). Background: In an ELISA, binding on a coated surface is turned into a signal by an enzyme label.
The target is the same in assay [4]. The assay is described as follows: isothermal titration calorimetry in PBS: 44 μM human βNGF titrated into 1.5 μM Tanezumab, single site binding model. (Isothermal titration calorimetry measures the heat released or taken up as one component is titrated into another.)
For assay [5] the target is unchanged. The assay is described as follows: papain Fab tested by Examples 3, 6 and 7.
Assay [6] has as its target T2, mouse beta-NGF (R&D Systems). The assay is described as follows: competition ELISA with biotin-mouse βNGF on immobilised trkA (Example 4).
In assay [7] the target is T1, human beta-NGF (R&D Systems). The assay is described as follows: screening by Examples 3 to 8 (NGF-trkA binding inhibition ELISA, cell assays).

B1: Tanezumab (antibody, V domains shown)
VH: QVQLQESGPGLVKPSETLSLTCTVSGFSLIGYDLNWIRQPPGKGLEWIGIIWGDGTTDYNSAVKSRVTISKDTSKNQFSLKLSSVTAADTAVYYCARGGYWYATSYYFDYWGQGTLVTVSS
VL: DIQMTQSPSSLSASVGDRVTITCRASQSISNNLNWYQQKPGKAPKLLIYYTSRFHSGVPSRFSGSGSGTDFTFTISSLQPEDIATYYCQQEHTLPYTFGQGTKLEIKR
For B1, the entries for the “IC50, neutralizing activity by the method of Example 6 (Ca2+ rise, HEK293 cells expressing human trkA)” value in assay [1] and in assay [2] were 0.17 µg/mL and 0.23 µg/mL, respectively. The molecule further returned a half-inhibitory concentration (IC50) in assay [3] of 0.41 µg/mL. In assay [4], this molecule yielded a Kd of 20.4 nM.

B2: PEGylated 1-15(N52D)-Fab' (Fab, V domains shown)
VH: QVQLQQWGAGLLKPSETLSLTCAVYGGSFSGYYWSWVRQPPGKGLEWIGEIDHSGSTNNNPSLKSRVTISVGTSKNQFSLKLSSVTAADTAVYYCSRDGGPESGMGAFDIWGQGTMVTVSS
VL: not shown
modifications: 40 kDa PEG (SUNBRIGHT GL2-400MA, maleimide) on the C-terminal Cys (EU C226; Cys 230 of SEQ ID NO 10)
Regarding B2, in assay [2], the “IC50, neutralizing activity by the method of Example 6 (Ca2+ rise, HEK293 cells expressing human trkA)” value turned out to be 0.069 µg/mL and the “fold stronger neutralizing activity than Tanezumab (method of Example 6)” value is about 3.3 fold.

B3: 1-15(N52D-A)-Fab'-10kPEG (Fab, V domains shown)
VH: B2 VH
VL: not shown
modifications: 10 kDa PEG (SUNBRIGHT GL2-100MA) bound by the procedure of Example 13 (hinge Cys)
Take B3: the “IC50, neutralizing activity by the method of Example 6 (final NGF concentration 50 ng/ml)” value in assay [1] was 0.028 µg/mL.

B4: 1-15(N52D-A)-Fab'-5kPEG (Fab, V domains shown)
VH: B2 VH
VL: not shown
modifications: 5 kDa PEG (SUNBRIGHT GL2-50MA) bound by the procedure of Example 13 (hinge Cys)
With B4, the “IC50, neutralizing activity by the method of Example 6 (final NGF concentration 50 ng/ml)” value in assay [1] came out at 0.03 µg/mL.

B5: Fab fragment of the 1-15 antibody (papain digest) (Fab, V domains shown)
VH: B2 VH with D52N
VL: not shown
notes: also called 1-15 Fab; 1価の抗体フラグメント
In the case of B5, in assay [5], the binding result is reported as “binds”.

B6: 1-15 antibody (chimeric antibody) (antibody, V domains shown)
VH: B2 VH with D52N
VL: not shown
notes: also called 1−15と命名した抗体(キメラ抗体)
As to B6, the binding result in assay [6] and in assay [7] was “binds” each time.
